Source: publication PMC3089470 (Nucleic Acids Research, 2011)

Columns and labels:
Experiment in all cases: pull-down
[1] = biological target: T1, NBS1A with the mutation R215W (UniProt O60934 1-221, R215W)
T1 sequence: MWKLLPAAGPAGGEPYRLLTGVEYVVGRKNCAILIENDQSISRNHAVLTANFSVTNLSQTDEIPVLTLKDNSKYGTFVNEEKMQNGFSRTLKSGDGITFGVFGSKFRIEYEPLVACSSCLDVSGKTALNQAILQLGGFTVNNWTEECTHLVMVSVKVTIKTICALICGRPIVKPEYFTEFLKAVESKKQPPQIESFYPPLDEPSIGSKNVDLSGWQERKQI

[2] = biological target: purified recombinant MRN complex (Mre11:Rad50:NBS1) (UniProt P49959;Q92878;O60934)
purified recombinant MRN complex (Mre11:Rad50:NBS1), sequence (P49959 whole entry, chain 1 of 2): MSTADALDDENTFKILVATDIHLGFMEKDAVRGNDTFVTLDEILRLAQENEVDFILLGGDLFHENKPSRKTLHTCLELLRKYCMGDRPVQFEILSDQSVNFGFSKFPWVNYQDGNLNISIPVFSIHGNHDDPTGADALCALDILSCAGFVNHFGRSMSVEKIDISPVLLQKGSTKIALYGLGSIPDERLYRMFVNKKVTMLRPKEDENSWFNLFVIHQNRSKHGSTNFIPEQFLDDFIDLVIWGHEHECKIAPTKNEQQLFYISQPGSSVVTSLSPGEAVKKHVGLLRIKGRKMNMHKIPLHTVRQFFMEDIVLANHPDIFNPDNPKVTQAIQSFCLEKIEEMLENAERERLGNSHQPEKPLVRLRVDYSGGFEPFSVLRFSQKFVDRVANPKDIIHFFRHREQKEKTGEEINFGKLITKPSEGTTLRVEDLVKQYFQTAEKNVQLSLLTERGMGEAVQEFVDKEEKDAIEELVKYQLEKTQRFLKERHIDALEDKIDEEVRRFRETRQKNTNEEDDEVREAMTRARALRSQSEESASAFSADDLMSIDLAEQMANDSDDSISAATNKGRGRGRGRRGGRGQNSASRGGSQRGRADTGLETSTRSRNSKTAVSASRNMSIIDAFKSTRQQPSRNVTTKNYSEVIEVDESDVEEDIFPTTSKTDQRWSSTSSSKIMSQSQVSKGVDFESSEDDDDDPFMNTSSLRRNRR
purified recombinant MRN complex (Mre11:Rad50:NBS1), sequence (Q92878 whole entry, chain 2 of 2): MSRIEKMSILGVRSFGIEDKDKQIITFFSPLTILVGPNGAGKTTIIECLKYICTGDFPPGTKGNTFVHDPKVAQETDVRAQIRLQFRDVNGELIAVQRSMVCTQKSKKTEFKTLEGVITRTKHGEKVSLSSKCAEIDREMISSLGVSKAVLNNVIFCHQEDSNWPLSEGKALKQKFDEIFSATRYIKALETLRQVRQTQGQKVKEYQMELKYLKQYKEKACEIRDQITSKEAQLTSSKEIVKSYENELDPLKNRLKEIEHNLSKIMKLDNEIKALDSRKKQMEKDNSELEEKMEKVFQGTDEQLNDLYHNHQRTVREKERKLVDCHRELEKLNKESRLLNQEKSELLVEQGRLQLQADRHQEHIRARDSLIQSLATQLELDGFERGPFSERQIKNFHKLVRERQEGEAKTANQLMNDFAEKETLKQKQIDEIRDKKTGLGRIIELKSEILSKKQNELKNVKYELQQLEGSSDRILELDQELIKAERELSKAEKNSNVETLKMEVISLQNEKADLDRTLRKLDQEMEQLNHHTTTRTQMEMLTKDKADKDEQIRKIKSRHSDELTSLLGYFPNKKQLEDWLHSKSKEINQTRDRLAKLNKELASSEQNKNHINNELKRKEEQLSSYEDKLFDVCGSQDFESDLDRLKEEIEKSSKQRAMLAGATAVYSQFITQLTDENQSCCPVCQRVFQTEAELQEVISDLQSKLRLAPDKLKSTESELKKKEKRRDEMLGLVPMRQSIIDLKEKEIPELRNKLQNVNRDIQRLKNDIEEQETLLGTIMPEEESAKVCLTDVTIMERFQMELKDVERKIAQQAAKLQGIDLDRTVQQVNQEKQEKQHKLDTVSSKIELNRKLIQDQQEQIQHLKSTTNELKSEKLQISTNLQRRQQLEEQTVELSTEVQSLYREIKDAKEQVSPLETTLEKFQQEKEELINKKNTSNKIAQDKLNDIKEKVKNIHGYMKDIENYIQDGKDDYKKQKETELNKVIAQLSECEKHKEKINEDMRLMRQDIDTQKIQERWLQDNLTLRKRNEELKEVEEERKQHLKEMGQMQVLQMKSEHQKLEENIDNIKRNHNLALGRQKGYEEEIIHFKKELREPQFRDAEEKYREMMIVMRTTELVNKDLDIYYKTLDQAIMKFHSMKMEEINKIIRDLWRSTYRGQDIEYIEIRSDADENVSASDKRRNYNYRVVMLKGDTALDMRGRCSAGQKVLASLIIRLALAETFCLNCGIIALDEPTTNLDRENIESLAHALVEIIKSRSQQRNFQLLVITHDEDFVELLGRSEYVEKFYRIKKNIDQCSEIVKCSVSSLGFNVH

[3] = biological target: T2, NBS1A with the mutation I171V (UniProt O60934 1-221, I171V)
T2 sequence: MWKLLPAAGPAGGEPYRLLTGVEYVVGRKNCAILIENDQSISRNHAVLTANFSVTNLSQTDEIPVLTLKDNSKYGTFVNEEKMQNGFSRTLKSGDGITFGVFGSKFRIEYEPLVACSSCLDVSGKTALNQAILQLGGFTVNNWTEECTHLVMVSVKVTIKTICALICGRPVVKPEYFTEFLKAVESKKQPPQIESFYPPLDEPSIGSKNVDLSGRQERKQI

[4] = biological target: T3, GST-tagged NBS1 fragment NBS1A (1-221) (UniProt O60934 1-221)
T3 sequence: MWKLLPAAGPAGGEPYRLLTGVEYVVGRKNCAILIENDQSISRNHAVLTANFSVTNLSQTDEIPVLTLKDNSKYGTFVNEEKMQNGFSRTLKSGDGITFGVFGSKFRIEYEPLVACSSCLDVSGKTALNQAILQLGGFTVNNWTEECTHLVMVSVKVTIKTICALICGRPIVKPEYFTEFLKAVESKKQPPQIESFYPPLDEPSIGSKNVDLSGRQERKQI

Measured: binding result

B1: hSSB1, full-length recombinant, His-tagged (natural protein)
chain: MTTETFVKDIKPGLKNLNLIFIVLETGRVTKTKDGHEVRTCKVADKTGSINISVWDDVGNLIQPGDIIRLTKGYASVFKGCLTLYTGRGGDLQKIGEFCMVYSEVPNFSEPNPEYSTQQAPNKAVQNDSNPSASQPTTGPSAASPASENQNGNGLSAPPGPGGGPHPPHTPSHPPSTRITRSQPNHTPAGPPGPSSNPVSNGKETRRSSKR
binds: all assays above
